Measurements published in article PMC6775779.

Target: HIV-1 integrase Q214C/Q221C double mutant, in virions (HIV-1)
Assay: cross-linking

HIV-1 integrase Q214C/Q221C double mutant, in virions (enzyme)
fold increase of the dimer percentage over WT: 3 fold | stoichiometry N: 2
